Assay results as given in PMC1888804 (Nucleic Acids Research, 2007).
Like-named read-outs stand apart in the source and are kept apart here.

Legend:
Test in all cases: SPR
[1] = molecular target: α subunit of Escherichia coli DNA polymerase III holoenzyme (E. coli) (UniProt P10443)
[2] = molecular target: T1, α subunit of Escherichia coli DNA polymerase III holoenzyme (E. coli, UniProt P10443 1-1160)
[3] = molecular target: T1, α subunit of Escherichia coli DNA …; remark: listed apart in the source
[4] = molecular target: T1, α subunit of Escherichia coli DNA …; remark: listed apart in the source

T1 sequence (P10443 whole entry): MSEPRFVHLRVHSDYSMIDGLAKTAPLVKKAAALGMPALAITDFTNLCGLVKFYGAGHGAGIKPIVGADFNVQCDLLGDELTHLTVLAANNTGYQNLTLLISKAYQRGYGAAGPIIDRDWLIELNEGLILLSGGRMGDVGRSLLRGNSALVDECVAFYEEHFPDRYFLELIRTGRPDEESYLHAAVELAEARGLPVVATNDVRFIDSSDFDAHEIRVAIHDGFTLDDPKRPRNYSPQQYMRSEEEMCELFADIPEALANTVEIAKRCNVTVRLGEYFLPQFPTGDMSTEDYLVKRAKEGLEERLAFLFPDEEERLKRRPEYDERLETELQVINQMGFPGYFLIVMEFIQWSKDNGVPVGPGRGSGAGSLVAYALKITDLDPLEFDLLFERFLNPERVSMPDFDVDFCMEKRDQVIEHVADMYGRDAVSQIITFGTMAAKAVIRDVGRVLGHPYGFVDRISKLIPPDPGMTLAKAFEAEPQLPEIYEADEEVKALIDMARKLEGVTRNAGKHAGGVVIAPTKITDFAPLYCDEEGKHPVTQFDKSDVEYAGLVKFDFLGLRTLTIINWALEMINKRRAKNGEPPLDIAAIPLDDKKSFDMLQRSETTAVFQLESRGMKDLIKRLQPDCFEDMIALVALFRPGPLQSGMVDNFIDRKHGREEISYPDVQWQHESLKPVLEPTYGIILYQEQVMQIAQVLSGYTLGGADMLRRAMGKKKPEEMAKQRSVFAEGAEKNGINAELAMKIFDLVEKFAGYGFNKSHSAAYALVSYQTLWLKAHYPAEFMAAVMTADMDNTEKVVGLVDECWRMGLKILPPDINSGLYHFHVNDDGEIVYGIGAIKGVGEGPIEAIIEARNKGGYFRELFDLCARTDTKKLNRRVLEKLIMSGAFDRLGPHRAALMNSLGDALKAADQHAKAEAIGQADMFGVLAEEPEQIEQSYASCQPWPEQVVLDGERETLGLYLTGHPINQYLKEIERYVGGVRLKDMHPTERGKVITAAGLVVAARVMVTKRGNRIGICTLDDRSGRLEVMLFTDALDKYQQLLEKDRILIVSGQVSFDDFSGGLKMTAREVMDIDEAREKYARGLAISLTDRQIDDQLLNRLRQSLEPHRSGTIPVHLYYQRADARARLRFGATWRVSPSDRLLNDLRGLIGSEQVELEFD
α subunit of Escherichia coli DNA polymerase III holoenzyme (E. coli), sequence (P10443 whole entry): as above

Molecule	Kd [2] [nM]	further results
τC16Δ7 (τC16 with a C-terminal deletion of seven residues) (from UniProt P06710 499-636) (domain or fragment)		Kd [1]: 6700 nM
bio-τC14 (biotinylated τC14) (domain or fragment, E. coli, biotinylated on the N-terminal biotin-tag) MKALEHEKTPELAAKLAAEAIERDPWAAQVSQLSLPKLVEQVALNAWKEESDNAVCLHLRSSQRHLNNRGAQQKLAEALSMLKGSTVELTIVEDDNPAVRTPLEWRQAIYEEKLAQARESIIADNNIQ		Kd [3]: > 1000 nM
τC16 (Domain V of the τ subunit of E. coli DNA polymerase III holoenzyme, residues 499–643) (domain or fragment) MKALEHEKTPELAAKLAAEAIERDPWAAQVSQLSLPKLVEQVALNAWKEESDNAVCLHLRSSQRHLNNRGAQQKLAEALSMLKGSTVELTIVEDDNPAVRTPLEWRQAIYEEKLAQARESIIADNNIQTLRRFFDAELDEESIRPI	0.13	
bio-τC16 (N-terminally biotinylated τC16) (domain or fragment, E. coli, biotinylated on the N-terminal biotin-tag) MKALEHEKTPELAAKLAAEAIERDPWAAQVSQLSLPKLVEQVALNAWKEESDNAVCLHLRSSQRHLNNRGAQQKLAEALSMLKGSTVELTIVEDDNPAVRTPLEWRQAIYEEKLAQARESIIADNNIQTLRRFFDAELDEESIRPI		Kd [4]: 0.264 nM; Kd [3]: 0.265 nM; koff [3]: 0.000402 s⁻¹; kon [3]: 1.52e+06 M⁻¹ s⁻¹
τC16[D636G] (domain or fragment, E. coli) MKALEHEKTPELAAKLAAEAIERDPWAAQVSQLSLPKLVEQVALNAWKEESDNAVCLHLRSSQRHLNNRGAQQKLAEALSMLKGSTVELTIVEDDNPAVRTPLEWRQAIYEEKLAQARESIIADNNIQTLRRFFDAELGEESIRPI	3.8	
τC16[F631I] (domain or fragment, E. coli) MKALEHEKTPELAAKLAAEAIERDPWAAQVSQLSLPKLVEQVALNAWKEESDNAVCLHLRSSQRHLNNRGAQQKLAEALSMLKGSTVELTIVEDDNPAVRTPLEWRQAIYEEKLAQARESIIADNNIQTLRRFIDAELDEESIRPI	99	
τC16[L635P] (domain or fragment, E. coli) MKALEHEKTPELAAKLAAEAIERDPWAAQVSQLSLPKLVEQVALNAWKEESDNAVCLHLRSSQRHLNNRGAQQKLAEALSMLKGSTVELTIVEDDNPAVRTPLEWRQAIYEEKLAQARESIIADNNIQTLRRFFDAEPDEESIRPI	2.4	
τC16[L627P] (domain or fragment, E. coli) MKALEHEKTPELAAKLAAEAIERDPWAAQVSQLSLPKLVEQVALNAWKEESDNAVCLHLRSSQRHLNNRGAQQKLAEALSMLKGSTVELTIVEDDNPAVRTPLEWRQAIYEEKLAQARESIIADNNIQTPRRFFDAELDEESIRPI	1500	
τC16[I618T] (domain or fragment, E. coli) MKALEHEKTPELAAKLAAEAIERDPWAAQVSQLSLPKLVEQVALNAWKEESDNAVCLHLRSSQRHLNNRGAQQKLAEALSMLKGSTVELTIVEDDNPAVRTPLEWRQAIYEEKLAQARESTIADNNIQTLRRFFDAELDEESIRPI	0.98	

Further lines, with some results ahead:

Kd [2] [nM]	Molecule	further results
3800	AQARESIIADNNIQTLRRFFDAELDEESIRPI (peptide, UniProt P06710 612-643, looked up) [τCpep32 (synthetic 32-mer peptide of the C-terminus of τ)]	
> 10000	τC14 (folded core of Domain V of τ, residues 499–625) (domain or fragment, E. coli) MKALEHEKTPELAAKLAAEAIERDPWAAQVSQLSLPKLVEQVALNAWKEESDNAVCLHLRSSQRHLNNRGAQQKLAEALSMLKGSTVELTIVEDDNPAVRTPLEWRQAIYEEKLAQARESIIADNNIQ	
> 10000	τC16Δ11 (τC16 with a C-terminal deletion of 11 residues) (domain or fragment, E. coli) MKALEHEKTPELAAKLAAEAIERDPWAAQVSQLSLPKLVEQVALNAWKEESDNAVCLHLRSSQRHLNNRGAQQKLAEALSMLKGSTVELTIVEDDNPAVRTPLEWRQAIYEEKLAQARESIIADNNIQTLRRFFD	
160	τC16[S617P] (domain or fragment, E. coli) MKALEHEKTPELAAKLAAEAIERDPWAAQVSQLSLPKLVEQVALNAWKEESDNAVCLHLRSSQRHLNNRGAQQKLAEALSMLKGSTVELTIVEDDNPAVRTPLEWRQAIYEEKLAQAREPIIADNNIQTLRRFFDAELDEESIRPI	
